# Experiments:
# [1] = target: Actin, cytoplasmic 1 (human) (UniProt P60709); assay: PIF affinity column + LC-MS/MS, CD8+ cell lysate
# [2] = target: Cartilage oligomeric matrix protein (human) (UniProt P49747); assay: PIF affinity column + LC-MS/MS, CD8+ cell lysate
# Cofilin-1 (human) [3] = target: Cofilin-1 (human) (UniProt P23528); assay: PIF affinity column + LC-MS/MS, CD8+ cell lysate
# [4] = target: Hepatoma-derived growth factor (human) (UniProt P51858); assay: PIF affinity column + LC-MS/MS, CD8+ cell lysate
# [5] = target: Isoform 2 of Protein SET (human) (UniProt Q01105); assay: PIF affinity column + LC-MS/MS, CD8+ cell lysate
# Sequence of Isoform 2 of Protein SET (human) (Q01105 other isoform, or with tags, fused parts or gaps limits assumed): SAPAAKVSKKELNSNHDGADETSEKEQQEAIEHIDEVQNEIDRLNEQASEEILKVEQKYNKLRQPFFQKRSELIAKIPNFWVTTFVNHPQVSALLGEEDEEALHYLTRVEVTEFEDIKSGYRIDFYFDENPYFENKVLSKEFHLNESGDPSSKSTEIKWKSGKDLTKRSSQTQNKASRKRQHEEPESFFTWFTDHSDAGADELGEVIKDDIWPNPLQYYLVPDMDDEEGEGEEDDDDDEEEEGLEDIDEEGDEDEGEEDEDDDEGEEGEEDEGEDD
# [6] = target: Nuclease-sensitive element-binding protein 1 (Fragment) (human) (UniProt P67809); assay: PIF affinity column + LC-MS/MS, CD8+ cell lysate
# Nucleolin (human) = Nucleolin (human) (UniProt P19338); assay: PIF affinity column + LC-MS/MS, CD8+ cell lysate
# Sequence of Nucleolin (human) (P19338 2-710 limits assumed): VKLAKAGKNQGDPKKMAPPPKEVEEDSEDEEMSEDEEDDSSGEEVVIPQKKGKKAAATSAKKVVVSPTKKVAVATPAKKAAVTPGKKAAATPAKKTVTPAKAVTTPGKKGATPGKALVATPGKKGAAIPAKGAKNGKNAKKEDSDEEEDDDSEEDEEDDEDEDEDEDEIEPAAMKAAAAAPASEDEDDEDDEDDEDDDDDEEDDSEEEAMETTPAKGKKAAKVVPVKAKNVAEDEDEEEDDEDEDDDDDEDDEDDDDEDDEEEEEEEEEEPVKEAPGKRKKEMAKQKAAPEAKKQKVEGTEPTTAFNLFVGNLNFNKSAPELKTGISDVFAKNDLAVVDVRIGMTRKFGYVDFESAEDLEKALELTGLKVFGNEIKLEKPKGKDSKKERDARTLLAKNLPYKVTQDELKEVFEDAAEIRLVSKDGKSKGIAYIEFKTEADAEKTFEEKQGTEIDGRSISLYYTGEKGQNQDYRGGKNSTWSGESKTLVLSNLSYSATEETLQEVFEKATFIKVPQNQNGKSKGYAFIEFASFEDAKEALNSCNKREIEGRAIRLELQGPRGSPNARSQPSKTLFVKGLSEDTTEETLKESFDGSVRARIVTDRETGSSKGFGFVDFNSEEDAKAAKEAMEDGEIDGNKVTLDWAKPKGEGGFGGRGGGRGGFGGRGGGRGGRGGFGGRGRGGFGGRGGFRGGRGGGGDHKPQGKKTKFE
# [7] = target: Serine/arginine-rich-splicing factor 1 (human) (UniProt Q07955); assay: PIF affinity column + LC-MS/MS, CD8+ cell lysate
# Serum albumin (human) [8] = target: Serum albumin (human) (UniProt P02768); assay: PIF affinity column + LC-MS/MS, CD8+ cell lysate
# Talin-1 (human) [9] = target: Talin-1 (human) (UniProt Q9Y490); assay: PIF affinity column + LC-MS/MS, CD8+ cell lysate
# Sequence of Talin-1 (human) (Q9Y490 whole entry): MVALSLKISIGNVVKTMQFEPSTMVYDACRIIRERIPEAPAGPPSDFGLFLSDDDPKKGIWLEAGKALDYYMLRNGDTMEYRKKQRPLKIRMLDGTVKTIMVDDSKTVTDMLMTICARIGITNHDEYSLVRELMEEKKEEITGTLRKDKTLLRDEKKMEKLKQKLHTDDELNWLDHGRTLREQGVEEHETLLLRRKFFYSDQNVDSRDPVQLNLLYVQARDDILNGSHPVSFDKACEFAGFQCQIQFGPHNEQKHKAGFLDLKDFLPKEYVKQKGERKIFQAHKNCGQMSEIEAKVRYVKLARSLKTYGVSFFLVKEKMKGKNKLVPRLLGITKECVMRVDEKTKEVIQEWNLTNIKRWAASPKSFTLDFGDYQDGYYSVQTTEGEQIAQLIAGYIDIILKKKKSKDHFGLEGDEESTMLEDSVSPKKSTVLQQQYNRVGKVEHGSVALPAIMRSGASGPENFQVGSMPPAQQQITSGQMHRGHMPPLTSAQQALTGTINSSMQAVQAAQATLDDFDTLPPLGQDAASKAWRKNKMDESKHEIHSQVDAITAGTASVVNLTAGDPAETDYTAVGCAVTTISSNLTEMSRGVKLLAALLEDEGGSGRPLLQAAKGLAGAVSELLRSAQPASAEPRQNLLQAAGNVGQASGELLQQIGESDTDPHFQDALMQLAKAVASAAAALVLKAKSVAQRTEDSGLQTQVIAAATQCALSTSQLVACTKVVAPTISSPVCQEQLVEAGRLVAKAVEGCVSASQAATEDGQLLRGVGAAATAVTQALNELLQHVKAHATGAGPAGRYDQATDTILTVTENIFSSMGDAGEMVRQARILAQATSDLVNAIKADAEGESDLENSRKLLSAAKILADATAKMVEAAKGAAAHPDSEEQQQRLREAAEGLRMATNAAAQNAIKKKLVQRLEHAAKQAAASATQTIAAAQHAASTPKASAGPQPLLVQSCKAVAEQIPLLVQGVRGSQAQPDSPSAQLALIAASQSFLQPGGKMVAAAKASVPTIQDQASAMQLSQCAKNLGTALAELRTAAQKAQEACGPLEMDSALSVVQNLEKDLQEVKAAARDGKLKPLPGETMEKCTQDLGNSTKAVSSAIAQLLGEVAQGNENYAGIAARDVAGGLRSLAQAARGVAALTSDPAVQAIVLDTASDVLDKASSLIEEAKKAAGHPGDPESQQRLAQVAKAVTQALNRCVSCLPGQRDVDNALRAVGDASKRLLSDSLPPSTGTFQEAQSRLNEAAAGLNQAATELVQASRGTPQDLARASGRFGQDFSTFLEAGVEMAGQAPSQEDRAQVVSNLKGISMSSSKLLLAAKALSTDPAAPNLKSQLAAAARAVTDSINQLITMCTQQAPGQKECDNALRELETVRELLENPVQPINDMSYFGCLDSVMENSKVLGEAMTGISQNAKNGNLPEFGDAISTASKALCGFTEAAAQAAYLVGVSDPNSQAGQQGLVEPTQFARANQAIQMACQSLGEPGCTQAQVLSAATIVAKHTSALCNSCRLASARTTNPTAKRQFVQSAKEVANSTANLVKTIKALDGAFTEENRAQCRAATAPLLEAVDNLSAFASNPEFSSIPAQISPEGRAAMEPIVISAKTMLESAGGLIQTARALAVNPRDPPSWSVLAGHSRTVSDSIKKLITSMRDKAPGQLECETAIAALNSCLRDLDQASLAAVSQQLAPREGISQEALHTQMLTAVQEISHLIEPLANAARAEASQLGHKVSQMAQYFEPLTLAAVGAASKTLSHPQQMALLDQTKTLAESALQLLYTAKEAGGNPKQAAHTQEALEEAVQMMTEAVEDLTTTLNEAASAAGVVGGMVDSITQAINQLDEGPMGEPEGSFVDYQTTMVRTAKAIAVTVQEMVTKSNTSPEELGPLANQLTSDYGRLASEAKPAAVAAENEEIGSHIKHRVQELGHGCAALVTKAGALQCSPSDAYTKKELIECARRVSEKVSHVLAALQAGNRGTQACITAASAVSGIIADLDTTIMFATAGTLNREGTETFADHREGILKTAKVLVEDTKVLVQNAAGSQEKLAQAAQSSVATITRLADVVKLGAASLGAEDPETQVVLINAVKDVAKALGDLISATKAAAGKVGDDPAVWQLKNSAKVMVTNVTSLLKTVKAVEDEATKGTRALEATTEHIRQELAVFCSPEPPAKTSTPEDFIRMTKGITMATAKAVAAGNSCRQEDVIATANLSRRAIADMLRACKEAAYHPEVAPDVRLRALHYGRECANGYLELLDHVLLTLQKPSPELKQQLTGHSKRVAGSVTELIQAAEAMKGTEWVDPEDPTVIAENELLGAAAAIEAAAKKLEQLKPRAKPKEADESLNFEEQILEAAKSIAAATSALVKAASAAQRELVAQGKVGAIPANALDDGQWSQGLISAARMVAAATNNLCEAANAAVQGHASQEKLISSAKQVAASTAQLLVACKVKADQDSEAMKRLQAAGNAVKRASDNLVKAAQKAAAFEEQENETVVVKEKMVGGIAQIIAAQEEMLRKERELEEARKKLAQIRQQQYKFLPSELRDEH
# Thymosin alpha-1 (human) [10] = target: Thymosin alpha-1 (human) (UniProt P06454); assay: PIF affinity column + LC-MS/MS, CD8+ cell lysate
# Sequence of Thymosin alpha-1 (human) (P06454 other isoform, or with tags, fused parts or gaps limits assumed): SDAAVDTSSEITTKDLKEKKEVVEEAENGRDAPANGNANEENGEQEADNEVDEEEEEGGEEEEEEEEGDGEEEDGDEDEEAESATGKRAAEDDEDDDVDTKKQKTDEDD
# [11] = target: Tubulin alpha-1C chain (human) (UniProt Q9BQE3); assay: PIF affinity column + LC-MS/MS, CD8+ cell lysate
# [12] = target: Acidic leucine-rich nuclear phosphoprotein 32 family member A (human) (UniProt P39687); assay: PIF affinity column + LC-MS/MS, CD4+ cell lysate
# Sequence of Acidic leucine-rich nuclear phosphoprotein 32 family member A (human) (P39687 whole entry): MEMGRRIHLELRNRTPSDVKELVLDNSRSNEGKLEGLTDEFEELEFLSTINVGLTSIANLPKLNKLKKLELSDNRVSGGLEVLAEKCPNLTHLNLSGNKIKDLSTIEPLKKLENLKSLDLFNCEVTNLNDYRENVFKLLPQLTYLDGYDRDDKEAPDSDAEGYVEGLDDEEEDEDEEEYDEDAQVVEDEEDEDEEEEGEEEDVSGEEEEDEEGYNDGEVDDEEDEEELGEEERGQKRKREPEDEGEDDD
# [13] = target: Actin, cytoplasmic 1 (human) (UniProt P60709); assay: PIF affinity column + LC-MS/MS, CD4+ cell lysate
# Calreticulin (human) = Calreticulin (human) (UniProt P27797); assay: PIF affinity column + LC-MS/MS, CD4+ cell lysate
# Sequence of Calreticulin (human) (P27797 18-417 limits assumed): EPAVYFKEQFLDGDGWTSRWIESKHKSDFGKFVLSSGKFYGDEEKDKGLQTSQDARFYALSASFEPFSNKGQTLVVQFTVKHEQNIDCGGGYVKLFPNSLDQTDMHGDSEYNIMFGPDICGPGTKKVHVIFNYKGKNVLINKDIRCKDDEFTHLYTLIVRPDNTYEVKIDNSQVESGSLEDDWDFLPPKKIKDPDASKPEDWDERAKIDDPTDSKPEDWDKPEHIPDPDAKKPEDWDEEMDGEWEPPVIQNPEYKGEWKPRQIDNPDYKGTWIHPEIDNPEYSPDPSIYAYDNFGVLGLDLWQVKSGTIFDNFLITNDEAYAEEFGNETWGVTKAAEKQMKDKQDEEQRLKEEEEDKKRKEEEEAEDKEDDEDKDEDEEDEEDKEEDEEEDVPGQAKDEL
# [14] = target: Cartilage oligomeric matrix protein (human) (UniProt P49747); assay: PIF affinity column + LC-MS/MS, CD4+ cell lysate
# Cofilin-1 (human) [15] = target: Cofilin-1 (human) (UniProt P23528); assay: PIF affinity column + LC-MS/MS, CD4+ cell lysate
# [16] = target: Glucosidase 2 subunit beta (human) (UniProt P14314); assay: PIF affinity column + LC-MS/MS, CD4+ cell lysate
# Sequence of Glucosidase 2 subunit beta (human) (P14314 other isoform, or with tags, fused parts or gaps limits assumed): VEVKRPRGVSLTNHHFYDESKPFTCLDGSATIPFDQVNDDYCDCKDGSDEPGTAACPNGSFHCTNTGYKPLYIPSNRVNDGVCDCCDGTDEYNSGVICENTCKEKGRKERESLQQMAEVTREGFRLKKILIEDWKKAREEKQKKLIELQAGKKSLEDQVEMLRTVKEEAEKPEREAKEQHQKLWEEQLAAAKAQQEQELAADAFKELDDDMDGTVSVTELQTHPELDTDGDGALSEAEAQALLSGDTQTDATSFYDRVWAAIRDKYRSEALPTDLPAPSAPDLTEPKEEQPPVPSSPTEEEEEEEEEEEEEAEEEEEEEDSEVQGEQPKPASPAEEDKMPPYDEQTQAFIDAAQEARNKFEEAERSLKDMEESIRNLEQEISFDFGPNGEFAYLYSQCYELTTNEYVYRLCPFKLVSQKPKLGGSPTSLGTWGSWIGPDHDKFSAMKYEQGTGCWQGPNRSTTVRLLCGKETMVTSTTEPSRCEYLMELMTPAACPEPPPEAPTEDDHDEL
# [17] = target: Isoform 2 of Heat shock protein HSP 90-alpha (human) (UniProt P07900); assay: PIF affinity column + LC-MS/MS, CD4+ cell lysate
# [18] = target: Isoform 2 of Protein SET (human) (UniProt Q01105); assay: PIF affinity column + LC-MS/MS, CD4+ cell lysate
# [19] = target: Serine/arginine-rich-splicing factor 2 (human) (UniProt Q01130); assay: PIF affinity column + LC-MS/MS, CD4+ cell lysate
# Serum albumin (human) [20] = target: Serum albumin (human) (UniProt P02768); assay: PIF affinity column + LC-MS/MS, CD4+ cell lysate
# Thymosin alpha-1 (human) [21] = target: Thymosin alpha-1 (human) (UniProt P06454); assay: PIF affinity column + LC-MS/MS, CD4+ cell lysate
# [22] = target: Tropomyosin alpha-4 chain (human) (UniProt P67936); assay: PIF affinity column + LC-MS/MS, CD4+ cell lysate
# Sequence of Tropomyosin alpha-4 chain (human) (P67936 2-248 limits assumed): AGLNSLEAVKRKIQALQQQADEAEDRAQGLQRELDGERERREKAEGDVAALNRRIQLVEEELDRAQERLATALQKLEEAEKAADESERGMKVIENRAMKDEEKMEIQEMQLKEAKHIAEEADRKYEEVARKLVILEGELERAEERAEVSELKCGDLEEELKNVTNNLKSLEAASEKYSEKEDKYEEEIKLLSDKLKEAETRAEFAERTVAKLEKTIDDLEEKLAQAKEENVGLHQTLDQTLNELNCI
# Filamin-A (human) = Filamin-A (human) (UniProt P21333); assay: PIF affinity column + LC-MS/MS, CD14+ cell lysate
# [23] = target: Nuclear autoantigenic sperm protein (human) (UniProt P49321); assay: PIF affinity column + LC-MS/MS, CD14+ cell lysate
# Talin-1 (human) [24] = target: Talin-1 (human) (UniProt Q9Y490); assay: PIF affinity column + LC-MS/MS, CD14+ cell lysate
substance,measurement,setting,value
PIF-resin (PIF15 affinity ligand on agarose) (peptide),Ave,[1],3
same,Inject 1,[1],3
same,Inject 2,[1],3
same,Inject 3,[1],3
same,Ave,[2],4
same,Inject 1,[2],4
same,Inject 2,[2],4
same,Inject 3,[2],5
same,Ave,Cofilin-1 (human) [3],1
same,Inject 1,Cofilin-1 (human) [3],1
same,Inject 2,Cofilin-1 (human) [3],1
same,Inject 3,Cofilin-1 (human) [3],1
same,Ave,[4],1
same,Inject 1,[4],1
same,Inject 2,[4],1
same,Inject 3,[4],1
same,Ave,[5],1
same,Inject 1,[5],1
same,Inject 2,[5],1
same,Inject 3,[5],1
same,Ave,[6],1
same,Inject 1,[6],1
same,Inject 2,[6],1
same,Inject 3,[6],1
same,Ave,Nucleolin (human),1
same,Inject 1,Nucleolin (human),1
same,Inject 2,Nucleolin (human),1
same,Inject 3,Nucleolin (human),1
same,Ave,[7],1
same,Inject 1,[7],1
same,Inject 2,[7],1
same,Inject 3,[7],1
same,Inject 3,Serum albumin (human) [8],8
same,Ave,Talin-1 (human) [9],1
same,Inject 1,Talin-1 (human) [9],1
same,Inject 2,Talin-1 (human) [9],1
same,Inject 3,Talin-1 (human) [9],1
same,Inject 3,Thymosin alpha-1 (human) [10],4
same,Ave,[11],1
same,Inject 1,[11],1
same,Inject 2,[11],1
same,Inject 3,[11],1
same,Ave,[12],1
same,Inject 1,[12],1
same,Inject 2,[12],1
same,Inject 3,[12],1
same,Ave,[13],2
same,Inject 1,[13],2
same,Inject 2,[13],2
same,Inject 3,[13],2
same,Ave,Calreticulin (human),4
same,Inject 1,Calreticulin (human),4
same,Inject 2,Calreticulin (human),4
same,Inject 3,Calreticulin (human),4
same,Ave,[14],10
same,Inject 1,[14],10
same,Inject 2,[14],10
same,Inject 3,[14],11
same,Ave,Cofilin-1 (human) [15],1
same,Inject 1,Cofilin-1 (human) [15],1
same,Inject 2,Cofilin-1 (human) [15],1
same,Inject 3,Cofilin-1 (human) [15],1
same,Ave,[16],1
same,Inject 1,[16],1
same,Inject 2,[16],1
same,Inject 3,[16],1
same,Ave,[17],4
same,Inject 1,[17],4
same,Inject 2,[17],4
same,Inject 3,[17],4
same,Ave,[18],4
same,Inject 2,[18],4
same,Inject 3,[18],4
same,Inject 1,[19],1
same,Ave,Serum albumin (human) [20],8
same,Inject 1,Serum albumin (human) [20],4
same,Inject 3,Serum albumin (human) [20],12
same,Ave,Thymosin alpha-1 (human) [21],5
same,Inject 1,Thymosin alpha-1 (human) [21],4
same,Inject 2,Thymosin alpha-1 (human) [21],5
same,Ave,[22],4
same,Inject 1,[22],4
same,Inject 2,[22],4
same,Inject 3,[22],4
same,Ave,Filamin-A (human),5
same,Inject 1,Filamin-A (human),5
same,Ave,[23],1
same,Inject 2,[23],0
same,Inject 3,[23],1
same,Inject 1,Talin-1 (human) [24],5
same,Inject 3,Talin-1 (human) [24],8

# Reference: patent publication US20230013244A1 (BioIncept, LLC, priority 2014, published 2023)
